Target: GyrA14 (UniProt P0AES4)
Assay: SEC-MALS

Work on “GyrA14 (from UniProt P0AES4 363-494) (domain or fragment)” yielded a stoichiometry N of 2.

— doi:10.1101/2022.05.18.492574
